How the values were obtained:
[1] = target: human SEZ6 on NTX tumor cells (human) (UniProt Q53EL9); experiment: flow cytometry dot plot of LU64 NTX tumor cells, CD324 against MOPC isotype control
[2] = target: human SEZ6 on NTX tumor cells (human) (UniProt Q53EL9); experiment: flow cytometry dot plot of LU86 NTX tumor cells, CD324 against MOPC isotype control
[3] = target: human SEZ6 on NTX tumor cells (human) (UniProt Q53EL9); experiment: flow cytometry dot plot of LU117 NTX tumor cells, CD324 against MOPC isotype control

Substance MOPC (antibody) has a % of cells in the upper right quadrant (CD324+, MOPC+) [1] of 0.597%, a % of cells in the lower right quadrant (CD324-, MOPC+) [2] of 0.014% and a % of cells in the upper right quadrant (CD324+, MOPC+) [2] of 0.483%. The % of cells in the upper right quadrant (CD324+, MOPC+) [3] was 0.347%.
